What all share (assay): EMSA
(In general: Mobility shift assays separate free from complexed probe on a gel.)

Series [1] deals with T1, CbbR R154H R154H (Ralstonia eutropha) (UniProt P42722).
T1 sequence: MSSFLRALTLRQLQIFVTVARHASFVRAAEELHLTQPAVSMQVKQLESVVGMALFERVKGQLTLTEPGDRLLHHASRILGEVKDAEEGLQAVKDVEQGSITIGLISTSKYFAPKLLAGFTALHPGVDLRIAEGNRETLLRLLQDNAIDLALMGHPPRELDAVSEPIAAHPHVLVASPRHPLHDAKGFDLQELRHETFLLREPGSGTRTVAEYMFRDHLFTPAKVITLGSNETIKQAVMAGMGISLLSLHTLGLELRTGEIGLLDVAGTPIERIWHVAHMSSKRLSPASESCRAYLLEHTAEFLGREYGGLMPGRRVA
The following applies: fold change in affinity with 400 uM PEP vs no metabolite; RuBP 0.68, ATP 1.2.

Series [2] concerns the target T2, CbbR G98R (Ralstonia eutropha) (UniProt P42722).
T2 sequence: T1 sequence with G98R, H154R
The following applies: fold change in affinity with 400 uM PEP vs no metabolite; RuBP 1.2, ATP 0.99.

Series [3] concerns the target T3, CbbR R135C R135C (Ralstonia eutropha) (UniProt P42722).
T3 sequence: T1 sequence with R135C, H154R
Particulars: fold change in affinity with 400 uM PEP vs no metabolite; RuBP 0.59, ATP 1.3.

Series [4] addresses T4, CbbR wild type (Ralstonia eutropha) (UniProt P42722).
T4 sequence: T1 sequence with H154R
Particulars: fold change in affinity with 400 uM PEP vs no metabolite; RuBP 2.3, ATP 3.2, NADPH 1.5, RU5P 0.91, FBP 0.96.

Series [5] addresses T5, CbbR R272Q (Ralstonia eutropha) (UniProt P42722).
T5 sequence: T1 sequence with H154R, R272Q
Particulars: fold change in affinity with 400 uM PEP vs no metabolite; RuBP 0.76, ATP 1.4; printed R272O in table.

Positions count from the first letter of the chain named.

Consider cbb promoter probe, 246 bp chromosomal, for which the binding signal in series [1] was 1.3 fold; in series [2], 2.7 fold; in series [3] it was 0.97 fold; in series [4] it was 3.8 fold; in series [5], 0.85 fold.

Source of the values: patent US20140087436.
